Measurements reported in the supplement of paper PMC7877785.
± gives the uncertainty stated by the source.

Assay: self-splicing fitness, log relative to wild type (ln ratio); higher = more splicing; Tetrahymena group I intron in knt gene, E. coli kanamycin selection, DiMSum; sequences stand for … in CUCUCU…GGAGGGAAAAGUUAUCAGGCAUGCACCUGGUAGCUAGUCUUUAAACCAAUAGAUUGCAUCGGUUUAAAAGGCAAGACCGUCAAAUUGCGGGAAAGGGGUCAACAGCCGUUCAGUACCAAGUCUCAGGGGAAACUUUGAGAUGGCCUUGCAAAGGGUAUGGUAAUAAGCUGACGGACAUGGUCCUAACCACGCAGCCAAGUCCUAAGUCAACAGAUCUUCUGUUGAUAUGGAUGCAGUUCACAGACUAAAUGUCGGUCGGGGAAGAUGUAUUCUUCUCAUAAGAUAUAGUCGGACCUCUCCUUAAUGGGAGCUAGCGGAUGAAGUGAUGCAACACUGGAGCCGCUGGGAACUAAUUUGUAUGCGAAAGUAUAUUGAUUAGUUUUGGAGUACUCGUGGUCG
Method in brief: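 A randomised library covering all eight P1ex-region intron nucleotides was built with the intron in the knt kanamycin-resistance gene on pET-22b(+) and held in E. coli BL21(DE3). Cells were grown overnight at 37°C or 30°C on LB agar, with or without 25 μg/mL kanamycin, plus 100 μg/mL carbenicillin, 50 μM IPTG and 0.2% rhamnose, and pooled colonies were amplicon-sequenced on an Illumina HiSeq 2500. DiMSum fitness is the error-weighted combination of wild-type-normalised replicate fold changes, kanamycin versus none.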

| Sequence | self-splicing fitness (ln) (30 °C) | self-splicing fitness (ln) (37 °C) |
| --- | --- | --- |
| CACUAGCAAUAUUACGACCA | -1.18 ± 0.14 | -1.69 ± 0.21 |
| CACUAGCAAUAUUACGAGCG | -0.458 ± 0.083 | 0.257 ± 0.086 |
| CACUAGCAAUAUUACGAUCA | -2.46 ± 0.17 | -1.22 ± 0.16 |
| CACUAGCAAUAUUACGAUCU | -3.56 ± 0.19 | -2.18 ± 0.18 |
| CACUAGCAAUAUUACGCACC | -2.29 ± 0.18 | -0.458 ± 0.19 |
| CACUAGCAAUAUUACGCGAU | -2.63 ± 0.23 | -2.12 ± 0.28 |
| CACUAGCAAUAUUACGCUAC |  | -2.31 ± 0.25 |
| CACUAGCAAUAUUACGGCGC | -2.98 ± 0.15 | -1.11 ± 0.15 |
| CACUAGCAAUAUUACGGCGU | -1.8 ± 0.12 | -0.74 ± 0.11 |
| CACUAGCAAUAUUACGGGAU | -4.27 ± 0.21 | -2.58 ± 0.15 |
| CACUAGCAAUAUUACGGUAC | -3.09 ± 0.2 | -2.87 ± 0.19 |
| CACUAGCAAUAUUACGGUAU | -3.41 ± 0.23 | -0.916 ± 0.13 |
| CACUAGCAAUAUUACGGUGU | -3.65 ± 0.15 | -2.95 ± 0.21 |
| CACUAGCAAUAUUACGUAUC | -3.43 ± 0.25 | -2.27 ± 0.19 |
| CACUAGCAAUAUUACGUCAC | -4.12 ± 0.29 | -2.01 ± 0.21 |
| CACUAGCAAUAUUACGUGAA | -3.83 ± 0.15 | -3.05 ± 0.18 |
| CACUAGCAAUAUUACGUGAC | -2.12 ± 0.14 | -2.36 ± 0.19 |
| CACUAGCAAUAUUACGUGAG | -3.33 ± 0.14 | -2.91 ± 0.23 |
| CACUAGCAAUAUUACGUUCA | -2.34 ± 0.17 | -2.49 ± 0.2 |
| CAGAAGCAAUAUUACGAACG | -0.0252 ± 0.12 | 0.182 ± 0.16 |
| CAGAAGCAAUAUUACGAUAA | -2.32 ± 0.17 | -2.02 ± 0.26 |
| CAGAAGCAAUAUUACGAUCU | -1.88 ± 0.12 | -0.995 ± 0.1 |
| CAGAAGCAAUAUUACGAUUA | -2.93 ± 0.17 | -1.51 ± 0.12 |
| CAGAAGCAAUAUUACGCAUC | -4.43 ± 0.37 | -2.37 ± 0.14 |
| CAGAAGCAAUAUUACGCAUU | -4.37 ± 0.27 | -2.92 ± 0.2 |

| Sequence | self-splicing fitness (ln) (30 °C) | self-splicing fitness (ln) (37 °C) |
| --- | --- | --- |
| CAGAAGCAAUAUUACGCCGG | -0.314 ± 0.13 | -0.619 ± 0.17 |
| CAGAAGCAAUAUUACGCGAU | -4.46 ± 0.32 | -2.59 ± 0.21 |
| CAGAAGCAAUAUUACGCGCU | -2.62 ± 0.17 | -1.92 ± 0.18 |
| CAGAAGCAAUAUUACGCUGA | -2.87 ± 0.18 | -1.98 ± 0.15 |
| CAGAAGCAAUAUUACGCUUU | -2.99 ± 0.17 | -3.59 ± 0.26 |
| CAGAAGCAAUAUUACGGACU | -2.88 ± 0.27 | -0.24 ± 0.31 |
| CAGAAGCAAUAUUACGGCAG | -0.0496 ± 0.063 | 0.33 ± 0.083 |
| CAGAAGCAAUAUUACGGCGU | -2.01 ± 0.18 | -1.18 ± 0.18 |
| CAGAAGCAAUAUUACGGCUC | -2.64 ± 0.28 | -0.31 ± 0.21 |
| CAGAAGCAAUAUUACGGUGU | -3.05 ± 0.12 | -2.22 ± 0.14 |
| CAGAAGCAAUAUUACGUCGA | -2.1 ± 0.13 | -0.369 ± 0.1 |
| CAGAAGCAAUAUUACGUGAG | -1.05 ± 0.064 | -0.806 ± 0.076 |
| CAGCAGCAAUAUUACGACCG | -0.0535 ± 0.096 | 0.48 ± 0.12 |
| CAGCAGCAAUAUUACGACUG | -3.64 ± 0.24 | -2.76 ± 0.33 |
| CAGCAGCAAUAUUACGAGGC | -3.04 ± 0.17 | -2.92 ± 0.2 |
| CAGCAGCAAUAUUACGCAAA | -3.14 ± 0.34 | -1.77 ± 0.23 |
| CAGCAGCAAUAUUACGCUCA | -0.65 ± 0.085 | -0.0891 ± 0.11 |
| CAGCAGCAAUAUUACGCUGG | -2.69 ± 0.15 | -2.43 ± 0.17 |
| CAGCAGCAAUAUUACGGAAA | -3.12 ± 0.14 | -2.19 ± 0.16 |
| CAGCAGCAAUAUUACGGACU | -2.43 ± 0.21 | -1.41 ± 0.13 |
| CAGCAGCAAUAUUACGGCGA | -0.356 ± 0.11 | -0.114 ± 0.12 |
| CAGCAGCAAUAUUACGGUAA | -1.97 ± 0.12 | -1.41 ± 0.12 |
| CAGCAGCAAUAUUACGUAGU | -3.03 ± 0.12 | -2.56 ± 0.13 |
| CAGCAGCAAUAUUACGUAUU | -3.51 ± 0.25 | -2.23 ± 0.22 |
| CAGCAGCAAUAUUACGUGGA | -3.09 ± 0.13 | -1.84 ± 0.12 |

| Sequence | self-splicing fitness (ln) (30 °C) | self-splicing fitness (ln) (37 °C) |
| --- | --- | --- |
| CAGGAGCAAUAUUACGAAGG | -1.43 ± 0.13 | -0.955 ± 0.18 |
| CAGGAGCAAUAUUACGAAUA | -3.47 ± 0.29 | -1.49 ± 0.24 |
| CAGGAGCAAUAUUACGACAU | -3.768 ± 0.031 | -2.94 ± 0.046 |
| CAGGAGCAAUAUUACGACGG | -1.44 ± 0.054 | -0.588 ± 0.053 |
| CAGGAGCAAUAUUACGCCUC | -2.08 ± 0.23 |  |
| CAGGAGCAAUAUUACGCGUU | -3.4 ± 0.17 | -2.01 ± 0.19 |
| CAGGAGCAAUAUUACGCUUA | -2.86 ± 0.21 | -2.02 ± 0.21 |
| CAGGAGCAAUAUUACGGCCU | -2.22 ± 0.24 | -1.42 ± 0.31 |
| CAGGAGCAAUAUUACGGCGU | -3.11 ± 0.2 | -2.84 ± 0.28 |
| CAGGAGCAAUAUUACGGCUA | -2.6 ± 0.19 | -1.34 ± 0.16 |
| CAGGAGCAAUAUUACGGGUG | -1.64 ± 0.082 | -0.707 ± 0.08 |
| CAGGAGCAAUAUUACGGUGG | -1.91 ± 0.14 | 0.146 ± 0.1 |
| CAGGAGCAAUAUUACGUAAC | -3.33 ± 0.26 | -2.74 ± 0.32 |
| CAGGAGCAAUAUUACGUAUC | -3.11 ± 0.23 | -3.54 ± 0.27 |
| CAGGAGCAAUAUUACGUCAG | -3.88 ± 0.4 | -1.17 ± 0.28 |
| CAGGAGCAAUAUUACGUCCU | -2.72 ± 0.24 | -2.08 ± 0.24 |
| CAGGAGCAAUAUUACGUCUG | -2.47 ± 0.22 |  |
| CAGGAGCAAUAUUACGUGUG | -2.56 ± 0.13 | -0.614 ± 0.1 |
| CAGGAGCAAUAUUACGUUCU | -4.15 ± 0.2 | -2.05 ± 0.14 |
| CAGGAGCAAUAUUACGUUUC | -3.21 ± 0.28 | -3.11 ± 0.38 |
| CAGUAGCAAUAUUACGACUA | 0.402 ± 0.089 | 0.675 ± 0.11 |
| CAGUAGCAAUAUUACGAGUA | -2.34 ± 0.21 | -2.57 ± 0.31 |
| CAGUAGCAAUAUUACGAGUG | -0.988 ± 0.052 | -0.603 ± 0.076 |
| CAGUAGCAAUAUUACGAUAG | 0.00229 ± 0.079 | 0.167 ± 0.097 |
| CAGUAGCAAUAUUACGCAAA |  | -3.33 ± 0.43 |

| Sequence | self-splicing fitness (ln) (30 °C) | self-splicing fitness (ln) (37 °C) |
| --- | --- | --- |
| CAGUAGCAAUAUUACGCCAA | -2.85 ± 0.36 | -2.91 ± 0.31 |
| CAGUAGCAAUAUUACGCUGG | -2.5 ± 0.17 | -1.34 ± 0.19 |
| CAGUAGCAAUAUUACGGUCA |  | -1.71 ± 0.28 |
| CAGUAGCAAUAUUACGUCAG | -0.873 ± 0.07 | 0.623 ± 0.095 |
| CAGUAGCAAUAUUACGUCCG | -0.245 ± 0.24 | 1.29 ± 0.42 |
| CAGUAGCAAUAUUACGUCGA | -3.45 ± 0.25 | -1.49 ± 0.17 |
| CAGUAGCAAUAUUACGUCGC |  | -2.7 ± 0.4 |
| CAGUAGCAAUAUUACGUUAU | -2.82 ± 0.24 | -1.37 ± 0.2 |
| CAGUAGCAAUAUUACGUUGA |  | -2.14 ± 0.16 |
| CAUAAGCAAUAUUACGACAU | -3.64 ± 0.024 | -2.45 ± 0.037 |
| CAUAAGCAAUAUUACGACGG | -0.41 ± 0.072 | -0.00998 ± 0.088 |
| CAUAAGCAAUAUUACGAGGA | -3.13 ± 0.18 | -2.23 ± 0.21 |
| CAUAAGCAAUAUUACGAGUU | -3.62 ± 0.29 | -1.82 ± 0.14 |
| CAUAAGCAAUAUUACGAUUG | -2.62 ± 0.095 | -1.27 ± 0.11 |
| CAUAAGCAAUAUUACGCAUA | -2.48 ± 0.18 | -1.71 ± 0.24 |
| CAUAAGCAAUAUUACGCGAA | -2.82 ± 0.25 | -2.59 ± 0.34 |
| CAUAAGCAAUAUUACGCGCA | -1.4 ± 0.11 | -0.55 ± 0.11 |
| CAUAAGCAAUAUUACGCUGA | -2.49 ± 0.21 | -2.62 ± 0.28 |
| CAUAAGCAAUAUUACGCUUA | -3.59 ± 0.29 | -2.65 ± 0.26 |
| CAUAAGCAAUAUUACGGCAG | 0.0468 ± 0.075 | -0.545 ± 0.089 |
| CAUAAGCAAUAUUACGGCCU | -3.3 ± 0.37 | -2.79 ± 0.4 |
| CAUAAGCAAUAUUACGGGAC | -1.54 ± 0.18 | -2.23 ± 0.27 |
